This test deals with T1, recombinant non-phosphorylated full-length TDP-43 (human, UniProt Q13148 1-414).
T1 construct: Bought recombinant protein; also called non-pathological full-length TDP-43; recombinantly expressed full-length TDP-43 (OriGene Technologies)
Briefly: ELISA, antigen coated. On the procedure: Plates were washed with PBS-Tween 0.05% and blocked 1 h at room temperature with PBS containing 5% Milk (Rapilait, Migros, Zurich, Switzerland) or 2% bovine serum albumin (BSA, Sigma-Aldrich Chemie GmbH, Buchs, Switzerland). Patient sera, B cell conditioned medium, or recombinant antibody preparations were incubated for 2 h at room temperature. Binding of human IgG to the antigen of interest was determined using a HRP-conjugated anti human antibody (anti-IgG-HRP from Jackson ImmunoResearch, West Grove, PA, USA) followed by measurement of the HRP activity using a tetramethylbenzidine substrate solution (TMB, Sigma-Aldrich Chemie GmbH, Buchs, Switzerland).
For orientation: ELISA stands for enzyme-linked immunosorbent assay.

T1 sequence (Q13148 whole entry): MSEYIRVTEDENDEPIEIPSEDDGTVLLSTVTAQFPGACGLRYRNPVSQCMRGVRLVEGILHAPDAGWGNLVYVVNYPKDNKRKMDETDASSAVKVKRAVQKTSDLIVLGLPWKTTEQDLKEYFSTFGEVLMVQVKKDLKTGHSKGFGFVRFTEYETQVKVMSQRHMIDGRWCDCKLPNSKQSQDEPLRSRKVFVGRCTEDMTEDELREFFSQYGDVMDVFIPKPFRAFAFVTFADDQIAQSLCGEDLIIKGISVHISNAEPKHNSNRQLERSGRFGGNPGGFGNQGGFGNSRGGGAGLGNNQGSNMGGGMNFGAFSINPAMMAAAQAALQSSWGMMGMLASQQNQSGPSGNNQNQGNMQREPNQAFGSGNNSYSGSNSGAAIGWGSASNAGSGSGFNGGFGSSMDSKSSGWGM

B1: antibody 15D7 (human IgG) (antibody, V domains shown)
VH: EVQLVESGGGLVQPGGSLRLSCSASGFTFGNYAMHWVRQAPGKGLEYVSAMSSNGGSTYYGDSVKGRFTISRDNSKNTLYLQMSSLRAEDTAVYYCVTRGRKAPSLYYFDCWGPGTLVTVSS
VL: not shown
notes: Recombinant human IgG
In the case of B1, the binding result is “no binding”.

Source of the values: patent US20240150449A1 (MABYLON, published 2024).
